Measured values published in patent CN114989309A.

Target: T1, 抗原表位融合多肽AFBMG
T1 sequence: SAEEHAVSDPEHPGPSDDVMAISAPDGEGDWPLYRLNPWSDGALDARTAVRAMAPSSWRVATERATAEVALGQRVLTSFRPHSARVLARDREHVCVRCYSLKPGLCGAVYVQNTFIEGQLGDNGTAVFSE
Assay: colloidal gold test strip with gold-labelled Nano-AF; dilution series of AFBMG from 1 mg/mL, three repeats

B1: 黄曲霉毒素纳米抗体Nano-AF (VHH)
VHH: QLQLGGSGGGLVQPGGLVQACAASGSTFAGFRAMGWRQAFRQAREFVAAITWSGASTYYTDSVKGRFTISRDNAKNTVYLQMNNLESLKPEDTAVYYCAGFMYYASNYCRYWGQGTQVTVSS
最低检测限: 10 ng/mL
